Reference: US9708383 (Novo Nordisk, dated 2017)
*1 amine or outer side, *2 acyl side, *3 side chain or, on linkers, in order; H or OH if unused. Where no end group is shown, it is not given here. Side-chain parts run from the residue outwards. [ ]: non-standard residue; d: D form. The star is where a group is joined. Decanoyl(10-(4-HOOC-PhO)) = O=C(O)c1ccc(OCCCCCCCCCC(=O)*)cc1; d(γGlu) = O=C(O)[C@@H](CCC(=O)[*:2])N[*:1]; C16 diacid = O=C(O)CCCCCCCCCCCCCCC(=O)*; γGlu = O=C(O)[C@H](CCC(=O)[*:2])N[*:1]; C12 diacid = O=C(O)CCCCCCCCCCC(=O)*; 13‑carboxytridecanoyl = C14 diacid; AEEA = NCCOCCOCC(=O)O; Aib = CC(C)(N)C(=O)O

B1: GLP-1 derivative of Example 15: [Lys8,Glu22,Arg26,Lys31,Gly34]-GLP-1-(7-34)-peptide (peptide)
peptide: HAEGTFTSDVSK([AEEA-AEEA-γGlu-13‑carboxytridecanoyl])YLEEQAAREFIAK([AEEA-AEEA-γGlu-13‑carboxytridecanoyl])LVG
notes: Name prints Lys8, evidently Lys18 (acylation at Nε18)
B2: GLP-1 derivative of Example 135: [Aib8,Lys18,Glu22,Val25,Arg26,Lys31,Arg34]-GLP-1-(7-37)-peptide amide (peptide)
peptide: H[Aib]EGTFTSDVSK([AEEA-AEEA-AEEA-AEEA-γGlu-C16 diacid])YLEEQAVREFIAK([AEEA-AEEA-AEEA-AEEA-γGlu-C16 diacid])LVRGRG-NH2
modifications: N-terminus assumed
SMILES: CC[C@H](C)[C@H](NC(=O)[C@H](Cc1ccccc1)NC(=O)[C@H](CCC(=O)O)NC(=O)[C@H](CCCNC(=N)N)NC(=O)[C@@H](NC(=O)[C@H](C)NC(=O)[C@H](CCC(N)=O)NC(=O)[C@H](CCC(=O)O)NC(=O)[C@H](CCC(=O)O)NC(=O)[C@H](CC(C)C)NC(=O)[C@H](Cc1ccc(O)cc1)NC(=O)[C@H](CCCCNC(=O)COCCOCCNC(=O)COCCOCCNC(=O)COCCOCCNC(=O)COCCOCCNC(=O)CC[C@H](NC(=O)CCCCCCCCCCCCCCC(=O)O)C(=O)O)NC(=O)[C@H](CO)NC(=O)[C@@H](NC(=O)[C@H](CC(=O)O)NC(=O)[C@H](CO)NC(=O)[C@@H](NC(=O)[C@H](Cc1ccccc1)NC(=O)[C@@H](NC(=O)CNC(=O)[C@H](CCC(=O)O)NC(=O)C(C)(C)NC(=O)[C@@H](N)Cc1c[nH]cn1)[C@@H](C)O)[C@@H](C)O)C(C)C)C(C)C)C(=O)N[C@@H](C)C(=O)N[C@@H](CCCCNC(=O)COCCOCCNC(=O)COCCOCCNC(=O)COCCOCCNC(=O)COCCOCCNC(=O)CC[C@H](NC(=O)CCCCCCCCCCCCCCC(=O)O)C(=O)O)C(=O)N[C@@H](CC(C)C)C(=O)N[C@H](C(=O)N[C@@H](CCCNC(=N)N)C(=O)NCC(=O)N[C@@H](CCCNC(=N)N)C(=O)NCC(N)=O)C(C)C
B3: GLP-1 derivative of Example 115: [Aib8,Lys18,Arg34]-GLP-1-(7-37)-peptide (peptide)
peptide: HXEGTFTSDVSKYLEGQAAKEFIAWLVRGRG
modifications: Aib8; Lys18 and Lys26 each Nε-acylated with 10-(4-carboxyphenoxy)decanoyl-OEG-OEG-gGlu
B4: GLP-1 derivative of Example 103: [Aib8,Lys18,Arg34]-GLP-1-(7-37)-peptide (peptide)
peptide: HXEGTFTSDVSKYLEGQAAKEFIAWLVRGRG
modifications: Aib8; Lys18 and Lys26 each Nε-acylated with 13-carboxytridecanoyl-gGlu-gGlu-OEG-OEG
B5: GLP-1 derivative of Example 108: [Aib8,Lys18,Arg34]-GLP-1-(7-37)-peptide (peptide)
peptide: HXEGTFTSDVSKYLEGQAAKEFIAWLVRGRG
modifications: Aib8; Lys18 and Lys26 each Nε-acylated with 11-carboxyundecanoyl-gGlu-gGlu-OEG-OEG

Assays:
[1] = biological target: T1, human GLP-1 receptor (human, UniProt P43220 24-463); assay: SPA, 2.0% vs 0.005% HSA
T1 construct: whole, on cells; Used as purified membranes of the transfected hamster cells, not whole cells; also called hGLP-1

[2] = biological target: T1, human GLP-1 receptor; assay: SPA, displacement of 125I-GLP-1(7-36)NH2, 0.005% HSA

| Binder | ratio IC50 high HSA/IC50 low HSA [1] | IC50 [2] |
| --- | --- | --- |
| HAEGTFTSDVSK([AEEA-AEEA-γGlu-13‑carboxytridecanoyl])YLEEQAVREFIAK([AEEA-AEEA-γGlu-13‑carboxytridecanoyl])LVG [GLP-1 derivative of Example 10: [Lys18,Glu22,Val25,Arg26,Lys31,Gly34]-GLP-1-(7-34)-peptide] | > 1 | < 1000 nM |
| HAEGTFTSDVSK([γGlu-AEEA-AEEA-13‑carboxytridecanoyl])YLEEQAARK([γGlu-AEEA-AEEA-13‑carboxytridecanoyl])FIAHLVG [GLP-1 derivative of Example 29: [Lys18,Glu22,Arg26,Lys27,His31,Gly34]-GLP-1-(7-34)-peptide] | > 1 | < 1000 nM |
| HAEGTFTSDVSK([AEEA-AEEA-13‑carboxytridecanoyl])YLEEQAARK([AEEA-AEEA-13‑carboxytridecanoyl])FIAHLVG [GLP-1 derivative of Example 28: [Lys18,Glu22,Arg26,Lys27,His31,Gly34]-GLP-1-(7-34)-peptide] | > 1 | < 1000 nM |
| HAEGTFTSDVSK([AEEA-AEEA-γGlu-Decanoyl(10-(4-HOOC-PhO))])YLEEQAARK([AEEA-AEEA-γGlu-Decanoyl(10-(4-HOOC-PhO))])FIAHLVG [GLP-1 derivative of Example 30: [Lys18,Glu22,Arg26,Lys27,His31,Gly34]-GLP-1-(7-34)-peptide] | > 1 | < 1000 nM |
| HSEGTFTSDVSK([AEEA-AEEA-γGlu-C12 diacid])YLEEQAVREFIAK([AEEA-AEEA-γGlu-C12 diacid])LVG [GLP-1 derivative of Example 25: [Ser8,Lys18,Glu22,Val25,Arg26,Lys31,Gly34]-GLP-1-(7-34)-peptide] | > 1 | < 1000 nM |
| HSEGTFTSDVSK([AEEA-AEEA-γGlu-13‑carboxytridecanoyl])YLEEQAVREFIAK([AEEA-AEEA-γGlu-13‑carboxytridecanoyl])LVG [GLP-1 derivative of Example 14: [Ser8,Lys18,Glu22,Val25,Arg26,Lys31,Gly34]-GLP-1-(7-34)-peptide] | > 1 | < 1000 nM |
| HAEGTFTSDVSK([γGlu-AEEA-AEEA-Decanoyl(10-(4-HOOC-PhO))])YLEEQAARK([γGlu-AEEA-AEEA-Decanoyl(10-(4-HOOC-PhO))])FIAHLVG [GLP-1 derivative of Example 49: [Lys18,Glu22,Arg26,Lys27,His31,Gly34]-GLP-1-(7-34)-peptide] | > 1 | < 1000 nM |
| B1 | > 1 | < 1000 nM |
| H[Aib]EGTFTSDVSK([AEEA-AEEA-d(γGlu)-γGlu-13‑carboxytridecanoyl])YLEEQAAK([AEEA-AEEA-d(γGlu)-γGlu-13‑carboxytridecanoyl])EFIAWLVQGRG [GLP-1 derivative of Example 105: [Aib8,Lys18,Glu22,Gln34]-GLP-1-(7-37)-peptide] | > 1 | < 1000 nM |
| H[Aib]EGTFTSDVSK([AEEA-AEEA-γGlu-13‑carboxytridecanoyl])YLEEQAAK([AEEA-AEEA-γGlu-13‑carboxytridecanoyl])EFIAWLVRGRG [GLP-1 derivative of Example 100: [Aib8,Lys18,Glu22,Arg34]-GLP-1-(7-37)-peptide] | > 1 | < 1000 nM |
| B2 | > 1 | < 1000 nM |
| H[Aib]EGTFTSDVSK([AEEA-γGlu-AEEA-C16 diacid])YLEEQAVREFIAK([AEEA-γGlu-AEEA-C16 diacid])LVRGRG [GLP-1 derivative of Example 146: [Aib8,Lys18,Glu22,Val25,Arg26,Lys31,Arg34]-GLP-1-(7-37)-peptide] | > 1 | < 1000 nM |
| H[Aib]EGTFTSDVSK([AEEA-AEEA-γGlu-13‑carboxytridecanoyl])YLEGQAAK([AEEA-AEEA-γGlu-13‑carboxytridecanoyl])EFIAWLVQGRG [GLP-1 derivative of Example 141: [Aib8,Lys18,Gln34]-GLP-1-(7-37)-peptide] | > 1 | < 1000 nM |
| H[Aib]EGTFTSDVSK([AEEA-AEEA-γGlu-13‑carboxytridecanoyl])YLEGQAVREFIAK([AEEA-AEEA-γGlu-13‑carboxytridecanoyl])LVRGRG [GLP-1 derivative of Example 112: [Aib8,Lys18,Val25,Arg26,Lys31,Arg34]-GLP-1-(7-37)-peptide] | > 1 | < 1000 nM |
| H[Aib]EGTFTSDVSK([AEEA-AEEA-γGlu-Decanoyl(10-(4-HOOC-PhO))])YLEGQAAK([AEEA-AEEA-γGlu-Decanoyl(10-(4-HOOC-PhO))])EFIAWLVHGRG [GLP-1 derivative of Example 142: [Aib8,Lys18,His34]-GLP-1-(7-37)-peptide] | > 1 | < 1000 nM |
| H[Aib]EGTFTSDVSKYLEEQAVREFIAKLVRGRG (not fully specified (residues 12, 25)) [GLP-1 derivative of Example 137: [Aib8,Lys18,Glu22,Val25,Arg26,Lys31,Arg34]-GLP-1-(7-37)-peptide] | > 1 | < 1000 nM |
| B3 | > 1 | < 1000 nM |
| B4 | > 1 | < 1000 nM |
| H[Aib]EGTLTSDVSK([AEEA-AEEA-γGlu-Decanoyl(10-(4-HOOC-PhO))])YLEGQAAK([AEEA-AEEA-γGlu-Decanoyl(10-(4-HOOC-PhO))])EFIAWLVQGRG [GLP-1 derivative of Example 139: [Aib8,Leu12,Lys18,Gln34]-GLP-1-(7-37)-peptide] | > 1 | < 1000 nM |
| H[Aib]EGTFTSDVSK([AEEA-AEEA-AEEA-AEEA-γGlu-13‑carboxytridecanoyl])YLEEQAVREFIAK([AEEA-AEEA-AEEA-AEEA-γGlu-13‑carboxytridecanoyl])LVRGRG [GLP-1 derivative of Example 130: [Aib8,Lys18,Glu22,Val25,Arg26,Lys31,Arg34]-GLP-1-(7-37)-peptide] | > 1 | < 1000 nM |
| H[Aib]EGTFTSDVSK([AEEA-AEEA-γGlu-γGlu-C16 diacid])YLEEQAVREFIAK([AEEA-AEEA-γGlu-γGlu-C16 diacid])LVRGRG [GLP-1 derivative of Example 134: [Aib8,Lys18,Glu22,Val25,Arg26,Lys31,Arg34]-GLP-1-(7-37)-peptide] | > 1 | < 1000 nM |
| B5 | > 1 | < 1000 nM |
| H[Aib]EGTFTSDVSK([AEEA-γGlu-AEEA-13‑carboxytridecanoyl])YLEEQAVREFIAK([AEEA-γGlu-AEEA-13‑carboxytridecanoyl])LVRGRG [GLP-1 derivative of Example 145: [Aib8,Lys18,Glu22,Val25,Arg26,Lys31,Arg34]-GLP-1-(7-37)-peptide] | > 1 | < 1000 nM |
| H[Aib]EGTFTSDVSK([AEEA-AEEA-γGlu-γGlu-γGlu-13‑carboxytridecanoyl])YLEEQAVREFIAK([AEEA-AEEA-γGlu-γGlu-γGlu-13‑carboxytridecanoyl])LVRGRG [GLP-1 derivative of Example 102: [Aib8,Lys18,Glu22,Val25,Arg26,Lys31,Arg34]-GLP-1-(7-37)-peptide] | > 1 | < 1000 nM |
| H[Aib]EGTFTSDVSK([AEEA-AEEA-AEEA-AEEA-AEEA-AEEA-γGlu-13‑carboxytridecanoyl])YLEEQAVREFIAK([AEEA-AEEA-AEEA-AEEA-AEEA-AEEA-γGlu-13‑carboxytridecanoyl])LVRGRG [GLP-1 derivative of Example 144: [Aib8,Lys18,Glu22,Val25,Arg26,Lys31,Arg34]-GLP-1-(7-37)-peptide] | > 1 | < 1000 nM |
| H[Aib]EGTFTSDVSK([AEEA-AEEA-AEEA-AEEA-AEEA-AEEA-γGlu-13‑carboxytridecanoyl])YLEEQAVREFIAK([AEEA-AEEA-AEEA-AEEA-AEEA-AEEA-γGlu-13‑carboxytridecanoyl])LVRGRG [GLP-1 derivative of Example 131: [Aib8,Lys18,Glu22,Val25,Arg26,Lys31,Arg34]-GLP-1-(7-37)-peptide] | > 1 | < 1000 nM |
